This passage reports IC50 of neutralisation of the autologous 16055 pseudovirus (TZM-bl cells); the mAb on Env of the virus results from article PMC8494329.

The target of this experiment is 16055 NFL trimer (native flexibly linked HIV-1 Env stabilized trimer, clade C strain 16055) (HIV-1, clade C, strain 16055).

B1: VD20.5A4 Fab (Fab, V domains shown)
VH: QVQLQESGPGLVKPSETLSLTCAVSGASISSNYWSWIRQPPGKGLEWIGRIYDPTDSTDYNPSLESRATISKDTSKNHFSLTLSSVTAADTAVYFCARGLWSGYFFWFDVWGPGVLVTVSS
VL: DIQMTQSPSSLSASVGDSVTVTCRASQGIDKELSWYQQKPGKAPTLLIYAASSLQTGVSSRFSGSGSGTDYTLTISSLQPEDVATYYCLQDYATPYSFGQGTKVEIK
The molecule B1 registered an IC50 of neutralisation of the autologous 16055 pseudovirus (TZM-bl cells); the mAb on Env of the virus of 0.005 μg/mL.

B2: D11A.B5 Fab (Fab, V domains shown)
VH: HLQLQESGPGLVKPSETLSLTCAVSGGSSSDYWWSWIRQPPGKGLEWIGRIDSIGNTYYNPSLRSRVTLSVDTSKNQFSLELTSVTAADTAVYYCARPYCAIGRCYESWGQGVLVTVSS
VL: EVVFTQPHSVSGSPGQTVTISCTRTSGSIDSEYVQWYQQRPGSAPTIVIYRDNQRPSGVPDRFSGSIDSSSNSASLAISGLKSEDEADYYCQSSDDSYNWVFGGGTRLTVL
As for B2, the IC50 of neutralisation of the autologous 16055 pseudovirus (TZM-bl cells); the mAb on Env of the virus stood at 3.68 μg/mL.
